In IntAct's records for PubMed 28319063:

B1: Partner and localizer of BRCA2 (Mus musculus), Q3U0P1 (parent)
chain: MEELSGKPLSYAEKEKLKEKLAFLKKEYSRTLARLQRAKRAEKAKNSKKAIEDGVPQPEASSQLSHSESINKGFPCDTLQSNHLDEETGENISQILDVEPQSFNCKQGKEVLHTPRAGDIQGQLLHSTSSPDGKKEQNTLPGTTKTPWEKSSVSQEKEDYFDTNSLALLGKHRKGQESISRKNSRTPVSEKTHLLSLRSQIPDPPALVTGIGEGILIPPSGKSERGIDTLVRGNTVSAEAAVPSCTASNSNHSQHLEHTPPKSGCKITTQGPASSTNLVAQDQKMTIFTVNSVVYKAVRAHGQLPGSPNSCSVNDLTHSNLPANSTPNSKSLKSPSNTVDERNEPLQEDEILGPSKNFNLAAVSPPSTESQIHSCTMLEGLLFPAEYYVRTTRRMSDCQRKIALEAVIQSHLGVKKKELKKKTKATKAVVLSSEDTDQSESGMLDTSTGQSSSGSLSQKLLSPAEVSSPPGPAGKATTPPPGRGHRGKRKSARTSTLGHCQLLFPPCAALAVNRSKGKFTKHKCQNRGVVIHDFELPDEDFGLLKLEKLKSCSEKLIESPDSKNCGERLPREGNHAALEELQRDSETEGLEEELTVPPGEAYRPGPTLRRQPGSKDLSSSIVLFTPADTAAPNDSGRPPPSLCSPAFPILGMTPALGSQAAGETLSTEAAQPCSTSQPPLLGDTNSLVNNSKQCNSSACSPKPDTNLQASGRQGQPACDSDSGPQATPLPVESFTFRENQLCGNACLELHEHSTEQTETADRPACDNLNPGNLQLVSELKNPSSSCSVDVSAMWWERAGAKEPCIVTACEDVVSLWKPLNSLQWEKVHTWHFTEVPVLQIVPVPDVYNLICVALGSLEIREIRALLCSSGDDSEKQVLLKSGDIKAMLGLTKRRLVSSTGTFCNQQIQIMTFADDGSSKDEQLLMPPDETVLTFAEVQGTQEALLGTTTVNSIVIWNLKTGQLLKKMHIDDSYQASVCHGAYSEKGLLFVVVSQPCAKESQALGSPVFQLLVINPKTAQSVGVLLCSLPQGQAGRFLEGDVKDHVAAAVLTSGTIAIWDLLLGHCTALLPPVSDQSWSLVKWSGTDSHLLAGQKDGNIFIYRYF

Variants of: B1
Conditions: with brca1_human BRCA1, P38398
Chain of brca1_human BRCA1, P38398 (P38398 whole entry, looked up): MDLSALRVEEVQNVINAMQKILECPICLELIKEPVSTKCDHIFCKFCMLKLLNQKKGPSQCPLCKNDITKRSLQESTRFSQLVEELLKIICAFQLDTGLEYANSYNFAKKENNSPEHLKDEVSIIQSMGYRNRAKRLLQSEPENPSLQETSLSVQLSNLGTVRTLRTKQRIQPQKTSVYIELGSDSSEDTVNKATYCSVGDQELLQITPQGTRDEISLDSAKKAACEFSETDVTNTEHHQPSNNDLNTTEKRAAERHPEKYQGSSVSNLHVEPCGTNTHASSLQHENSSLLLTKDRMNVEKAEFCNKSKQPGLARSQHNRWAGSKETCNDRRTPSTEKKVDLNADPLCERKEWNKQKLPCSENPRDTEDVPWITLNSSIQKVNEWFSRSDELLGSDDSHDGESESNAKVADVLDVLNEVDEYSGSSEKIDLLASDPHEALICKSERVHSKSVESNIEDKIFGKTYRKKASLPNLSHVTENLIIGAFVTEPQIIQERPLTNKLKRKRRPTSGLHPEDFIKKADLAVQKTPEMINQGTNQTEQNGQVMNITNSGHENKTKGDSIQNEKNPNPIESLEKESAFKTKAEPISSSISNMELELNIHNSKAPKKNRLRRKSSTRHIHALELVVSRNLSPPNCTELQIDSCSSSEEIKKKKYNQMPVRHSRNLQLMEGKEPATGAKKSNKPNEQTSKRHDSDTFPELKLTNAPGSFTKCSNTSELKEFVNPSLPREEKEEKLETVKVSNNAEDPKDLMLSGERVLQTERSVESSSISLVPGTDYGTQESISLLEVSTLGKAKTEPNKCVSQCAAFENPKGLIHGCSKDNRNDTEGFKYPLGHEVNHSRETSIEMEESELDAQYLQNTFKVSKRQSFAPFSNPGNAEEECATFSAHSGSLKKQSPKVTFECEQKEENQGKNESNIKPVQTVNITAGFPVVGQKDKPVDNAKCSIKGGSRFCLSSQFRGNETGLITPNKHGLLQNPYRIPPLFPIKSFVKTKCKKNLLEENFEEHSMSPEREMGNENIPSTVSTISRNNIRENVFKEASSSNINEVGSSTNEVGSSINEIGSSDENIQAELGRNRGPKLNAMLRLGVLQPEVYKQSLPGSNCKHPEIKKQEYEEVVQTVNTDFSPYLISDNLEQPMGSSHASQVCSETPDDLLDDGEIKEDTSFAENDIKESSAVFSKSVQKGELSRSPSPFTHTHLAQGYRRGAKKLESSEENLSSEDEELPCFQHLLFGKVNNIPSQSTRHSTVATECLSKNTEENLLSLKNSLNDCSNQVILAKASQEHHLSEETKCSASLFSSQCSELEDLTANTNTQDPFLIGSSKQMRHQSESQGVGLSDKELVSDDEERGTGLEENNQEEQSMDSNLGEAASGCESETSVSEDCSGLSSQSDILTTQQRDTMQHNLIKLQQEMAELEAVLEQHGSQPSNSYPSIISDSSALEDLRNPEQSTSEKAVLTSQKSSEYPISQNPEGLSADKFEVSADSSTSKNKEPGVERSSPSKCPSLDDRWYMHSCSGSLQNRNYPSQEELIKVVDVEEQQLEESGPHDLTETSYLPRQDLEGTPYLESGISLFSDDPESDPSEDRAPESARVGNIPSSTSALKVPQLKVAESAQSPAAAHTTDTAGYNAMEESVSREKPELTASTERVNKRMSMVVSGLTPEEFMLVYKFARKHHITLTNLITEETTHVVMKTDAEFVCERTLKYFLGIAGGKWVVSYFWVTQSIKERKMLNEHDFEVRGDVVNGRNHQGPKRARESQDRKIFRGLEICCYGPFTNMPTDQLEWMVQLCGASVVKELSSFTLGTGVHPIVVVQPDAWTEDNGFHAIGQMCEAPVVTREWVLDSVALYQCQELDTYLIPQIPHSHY

Row | Variant | effect of a mutation on the interaction
1 | K18R | with no effect
2 | R37H | with no effect

Next, values leading:

Row | effect of a mutation on the interaction | Variant
3 | disrupting interaction | Y28C
4 | disrupting interaction | L35P
